Key:
[1] = molecular target: T1, MUC1 tandem repeat peptide APPAHGVTSAPD-T(X)-RPAPGSTAPPAHGVTSA with GalNAcalpha (Tn) at T (human, GalNAcalpha (Tn) O-glycan on the threonine of PDTR; biotinylated); assay: antigen ELISA on Tn-PDTR MUC1 peptide, purified antibody [panel Binding to Tn-MUC1]
T1 construct: also called Tn-PDTR MUC1 peptide; Tn-MUC1 peptide
T1 peptide: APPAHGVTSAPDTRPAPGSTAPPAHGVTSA

[2] = molecular target: T2, MUC1 tandem repeat peptide APPAHGVTSAPD-T(X)-RPAPGSTAPPAHGVTSA with Galβ1-3GalNAcalpha (TF) at T (human, Galβ1-3GalNAcalpha (TF) O-glycan on the threonine of PDTR; biotinylated); assay: antigen ELISA on TF-glycosylated PDTR MUC1 peptide [panel Binding to TF-MUC1 peptide]
T2 construct: also called TF-PDTR MUC1 peptide; TF-MUC1 peptide
T2 peptide: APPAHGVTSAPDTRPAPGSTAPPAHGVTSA

[3] = molecular target: T1, MUC1 tandem repeat peptide …; assay: SPR (Biacore), biotinylated peptide on streptavidin chip
Experimental: (§1) Binding of the Fab-deglycosylated version of the MUC1-specific antibody PankoMab (PM-N54Q) on TA-MUC-1 derived glycosylated peptide was evaluated by surface plasmon resonance analysis (Biacore). A streptavidin sensor chip was coated with biotinylated TA-MUC1 peptide (Tn glycosylated or not glycosylated). PankoMab and PM-N54Q were diluted sequentially 1:3 from 3,600 to 4.9 nM in HPS-EP. The dilutions were injected at 50 μL/min. Maximal binding of each concentration was determined as response units (RU), respectively, and evaluated with GraphPad Prism using “one-site specific binding”. […] Therefore, in this experimental setting a nearly two-fold increase in affinity was detectable.

[4] = molecular target: T1, MUC1 tandem repeat peptide …; assay: antigen ELISA on Tn-glycosylated PDTR MUC1 peptide
[5] = molecular target: T3, biotinylated TA-MUC1 peptides (Example 4b); assay: fluorescence proximity sensing (DRX, switchSENSE), biotinylated TA-MUC1 peptide captured by streptavidin; antibody at 3.7, 33.3 and 300 nM
T3 construct: also called antigen peptide
Description: (§2) A new method to determine binding constants and affinity is the fluorescence proximity sensing using single stranded DNA (96mer) spotted on a chip and complementary DNA coupled to a ligand. In the present study streptavidin was used as a ligand to capture biotinylated TA-MUC1 peptides. […] On- and off-rates can be calculated during association and dissociation. Due to a higher sensitivity faster interactions can be monitored compared to surface plasmon resonance.
(§3) PankoMab and PM-N54Q were diluted from 300 nM in 1:9 steps to 3.67 nM in PE140 buffer and applied to the chip-bound peptides. Binding curves were evaluated by mono-exponential global fit (instrument software). Binding curves of PM and PM-N54Q are exemplarily shown in FIGS. 3A and B. Calculated affinities of PankoMab variants are shown in Table 2: […]

[6] = molecular target: T2, MUC1 tandem repeat peptide …; assay: antigen ELISA on TF-PDTR MUC1 peptide, purified antibody [panel Binding to TF-MUC1]
[7] = molecular target: T3, biotinylated TA-MUC1 peptides (Example …); assay: fluorescence proximity sensing (DRX2 switchSENSE), biotinylated peptide captured by streptavidin
Description: as §2, §3

[8] = molecular target: T4, MUC1 tandem repeat peptide APPAHGVTSAPD-T(X)-RPAPGSTAPPAHGVTSA with sialylated TF (sTF) at T (human, not fully specified; sialylated TF (sTF) O-glycan on the threonine of PDTR; biotinylated); assay: antigen ELISA on sTF-glycosylated PDTR MUC1 peptide [panel Binding to sTF-MUC1 peptide]
T4 construct: also called sTF-PDTR MUC1 peptide
T4 peptide: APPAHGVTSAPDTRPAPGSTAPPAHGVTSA

[9] = molecular target: T1, MUC1 tandem repeat peptide …; assay: SPR (Biacore), biotinylated peptide on streptavidin chip, steady-state fit of maximal RU
Experimental: as §1

[10] = molecular target: T5, MUC1 tandem repeat peptide APPAHGVTSAPD-T(X)-RPAPGSTAPPAHGVTSA with sialylated GalNAcalpha (sTn) at T (human, sialylated GalNAcalpha (sTn) O-glycan on the threonine of PDTR; biotinylated); assay: antigen ELISA on sTn-glycosylated PDTR MUC1 peptide [panel Binding to sTn-MUC1 peptide]
T5 construct: also called sTn-PDTR MUC1 peptide
T5 peptide: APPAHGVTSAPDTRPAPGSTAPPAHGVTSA

[11] = molecular target: T6, His-tagged FcγRIIIa (Glycotope GmbH) (UniProt P08637 17-208, limits assumed); assay: AlphaScreen competition, low-fucosylated antibody; His-tagged FcγRIIIa on Ni-chelate donor beads, competitor rabbit-anti-mouse coupled acceptor beads
T6 construct: also called Fcγ receptor IIIa; CD16a; not shown: His tag
Description: For the receptor binding assays, His-tagged FcγRIIIa (Glycotope GmbH) is captured by Ni-chelate donor beads. Anti-MUC1 antibodies and rabbit-anti-mouse coupled acceptor beads compete for binding to FcγR. In case of interaction of FcγR with rabbit-anti-mouse-bound acceptor beads, donor and acceptor beads come into close proximity which leads, upon laser excitation at 680 nm, to light emission. A maximum signal is achieved (signalₘₐₓ) without a competitor. In case of competition, where a test antibody binds to FcγR, the signalₘₐₓ is reduced in a concentration-dependent manner. Chemiluminescence was quantified by measurement at 520-620 nm (AlphaScreen® method) using an EnSpire 2300 multilabel reader (PerkinElmer). All results were expressed as the mean±standard deviation of duplicate samples. The data were evaluated and calculated using non-linear curve fitting (sigmoidal dose-response variable slope) with GraphPad Prism 5 software. As a result, a concentration dependent sigmoidal curve was obtained, which is defined by top-plateau, bottom-plateau, slope and EC₅₀.

[12] = molecular target: T5, MUC1 tandem repeat peptide …; assay: TA-MUC1 antigen ELISA, biotinylated glycopeptide
[13] = molecular target: T4, MUC1 tandem repeat peptide …; assay: TA-MUC1 antigen ELISA, biotinylated glycopeptide
[14] = molecular target: T1, MUC1 tandem repeat peptide …; assay: TA-MUC1 antigen ELISA, biotinylated glycopeptide
[15] = molecular target: T2, MUC1 tandem repeat peptide …; assay: TA-MUC1 antigen ELISA, biotinylated glycopeptide
[16] = molecular target: T1, MUC1 tandem repeat peptide …; assay: antigen ELISA on Tn-glycosylated PDTR MUC1 peptide [panel Binding to Tn-MUC1 peptide]

T6 sequence (P08637 17-208 limits assumed): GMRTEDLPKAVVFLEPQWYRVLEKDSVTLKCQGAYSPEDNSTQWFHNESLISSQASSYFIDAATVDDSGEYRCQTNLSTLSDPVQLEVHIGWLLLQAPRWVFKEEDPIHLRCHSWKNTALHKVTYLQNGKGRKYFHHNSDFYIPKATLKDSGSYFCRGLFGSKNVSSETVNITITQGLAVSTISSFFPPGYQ

B1: humanized antibody PankoMab N54Q (without Fab glycosylation) (antibody, human IgG1, kappa)
heavy: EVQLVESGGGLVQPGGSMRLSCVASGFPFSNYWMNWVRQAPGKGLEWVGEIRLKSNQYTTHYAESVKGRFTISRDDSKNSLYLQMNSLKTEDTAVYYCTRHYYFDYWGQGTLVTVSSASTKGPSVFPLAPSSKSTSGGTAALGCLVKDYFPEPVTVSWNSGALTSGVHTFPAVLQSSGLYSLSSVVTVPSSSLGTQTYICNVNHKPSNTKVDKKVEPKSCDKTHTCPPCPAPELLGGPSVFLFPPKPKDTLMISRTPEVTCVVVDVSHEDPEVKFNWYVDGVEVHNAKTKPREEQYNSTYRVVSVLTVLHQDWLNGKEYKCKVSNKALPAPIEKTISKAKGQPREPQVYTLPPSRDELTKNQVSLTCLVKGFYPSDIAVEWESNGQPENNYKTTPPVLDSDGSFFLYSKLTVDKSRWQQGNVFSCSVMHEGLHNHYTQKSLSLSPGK
light: DIVMTQSPLSNPVTPGEPASISCRSSKSLLHSNGITYFFWYLQKPGQSPQLLIYQMSNLASGVPDRFSGSGSGTDFTLRISRVEAEDVGVYYCAQNLELPPTFGQGTKVEIKRTVAAPSVFIFPPSDEQLKSGTASVVCLLNNFYPREAKVQWKVDNALQSGNSQESVTEQDSKDSTYSLSSTLTLSKADYEKHKVYACEVTHQGLSSPVTKSFNRGEC
notes: IgG1 kappa; Made in NM-H9D8 cells (for the FcγRIIIa assay also in NM-H9D8-E6Q12, low fucose); also called PM-N54Q; PM N54Q w/o Fab glyc
In the case of B1, the “EC50 (read off the curve)” value [1] is reported as ~10 ng/mL, the “EC50 (read off the curve)” value [2] is reported as ~10 ng/mL and the “fold increase in affinity compared to PankoMab-GEX®” value [3] is reported as ~2 fold. The “EC50 (read off the curve)” value [4] was ~20 ng/mL, the Kd [5] was 1.63 nM and the koff [5] was 0.0109 s⁻¹. The kon [5] was 6.7e+06 M⁻¹ s⁻¹, the “EC50 (read off the curve)” value [6] was ~10 ng/mL and the Kd [7] was 1.6 nM. For the same binder, the “EC50 (read off the curve)” value [8] was ~10 ng/mL, the Kd [9] was 388 nM and the “EC50 (read off the curve)” value [10] was ~100 ng/mL. The “IC50 (read off the curve)” value [11] was ~4000 ng/mL, the “fold better binding compared to PankoMab-GEX®” value (shortened to “fold better binding”) [12] was ~7 fold and the “fold better binding” value [13] was 2 fold. The “fold higher binding compared to PankoMab-GEX®” value [14] was 4 fold, the “fold better binding” value [15] was 2 fold and the “EC50 (read off the curve)” value [16] was ~10 ng/mL.
